The source of these data is PMC9674614 (Nature Communications, 2022).

Data set [1] concerns the target vaccinia virus protein C4, full length, from baculovirus (vaccinia virus strain Western Reserve (WR)). The experiment in a line: SEC.
The target in data set [2] is C-terminal domain of vaccinia virus C16 (vaccinia virus strain Western Reserve (WR)) (UniProt P03296). The experiment in a line: SEC; C16-C alone.
The data set “SEC” deals with the molecule itself. The experiment in a line: SEC.
Data set [3] concerns the molecule itself. The experiment in a line: mass photometry; purified recombinant C16 alone.

For the molecule “vaccinia virus protein C4, full length, from baculovirus (natural protein)”, in data set [1], the stoichiometry N stood at 2. On to “C-terminal domain of vaccinia virus C16 (from UniProt P03296) (domain or fragment)”, for which, in data set [2], the stoichiometry N worked out at 2.

B1: vaccinia virus (strain Western Reserve) protein C16, full length, from E. coli (natural protein)
chain: MDIYDDKGLQTIKLFNNEFDCIRNDIRELFKHVTDSDSIQLPMEDNSDIIENIRKILYRRLKNVECVDIDSTITFMKYDPNDDNKRTCSNWVPLTNNYMEYCLVIYLETPICGGKIKLYHPTGNIKSDKDIMFAKTLDFKSKKVLTGRKTIAVLDISVSYNRSMTTIHYNDDVDIDIHTDKNGKELCYCYITIDDHYLVDVETIGVIVNRSGKCLLVNNHLGIGIVKDKRISDSFGDVCMDTIFDFSEARELFSLTNDDNRNIAWDTDKLDDDTDIWTPVTEDDYKFLSRLVLYAKSQSDTVFDYYVLTGDTEPPTVFIFKVTRFYFNMPK
notes: also called VACV-C16; FLC16
As for B1, the entries for the “stoichiometry N” value (in “SEC”; in data set [3]) were 2 and 4, respectively.
